From patent publication US10138282B2, “Peptide antagonist of LL-37” (INDIANA UNIVERSITY RESEARCH AND TECHNOLOGY CORPORATION, priority 2014, dated 2018)
“Also recorded” adds a separate entry of the source. Where no end group is shown, it is not given here.

Experiments:
[1] = Dynamic light scatter spectroscopy, hydrodynamic radius; type: physicochemical; conditions: for Hydrodynamic radius (nm) pH 5.8 / Hydrodynamic radius (nm) pH 7.4: 1.0 μM peptide; for Hydrodynamic radius (nm) pH 5.8: phosphate buffer pH 5.8; for Hydrodynamic radius (nm) pH 7.4: phosphate buffer pH 7.4; for pH-dependent dissociation of peptide particles, in words: acidification of phosphate buffer
Description: The hydrodynamic radii of LL-37 and other peptides were monitored by a Zetasizer Nano-S instrument (Malvern Instruments). All measurements were taken with 1 μM of peptide dissolved in phosphate buffer adjusted to the desired pH at 22° C.

TLR3 signaling = assay: IL-6 production (ELISA) in BEAS-2B cells induced with poly(I:C); type: cell-based, human; conditions: for Enhancement of TLR3 signaling / poly(I:C)-induced IL-6, in words: BEAS-2B cells; for IL-6 production (%) poly(I:C)-depend.: BEAS-2B cells induced with 130 ng/ml of poly(I:C), LL-37 100
Description: (§1) IL-6 production was quantified by ELISA using the OptEIA™ kit (BD Biosciences). A typical assay used 2×10^4 BEAS-2B cells/well grown for 24 h in flat bottom 96-well plates. Poly(I:C) was added to a final concentration of 0.13 μg/ml. Antimicrobial peptides were added to the cell culture medium to a final concentration of 3 μM unless specified otherwise. All ELISA results shown were performed in triplicate and in at least three independent experiments.
(§2) To better define how residues in LL-37 contribute to function, several variants derived from LL-37 were tested for: 1) repression of TLR4 signaling by LPS, 2) enhancement of TLR3 signaling by poly(I:C), and 3) binding to LL-37. Signaling by TLR3 and TLR4 were monitored using ELISA to detect IL-6 secreted into the medium of BEAS-2B cells.

Reovirus dsRNA, Reo S4 = assay: IL-6 production in BEAS-2B cells in the presence of Reovirus dsRNA Reo S4; type: cell-based, human
Description: as §1
Herein, we analyzed the LL-37 orthologs from Rhesus monkeys, pig, sheep, guinea pigs, rabbit, as well as mouse (FIG. 14A). All peptides were chemically synthesized and assayed for the induction of inflammatory cytokine IL-6 in the presence of the double-stranded RNA mimic, poly(I:C) or the Reovirus dsRNA, Reo S4 (FIGS. 14B and 14C). […] Importantly, all LL-37 orthologs tested had the ability to reduce IL-6 production in response to LPS (FIG. 14E).

poly(I:C) = assay: Fluorescence polarization, peptide binding to poly(I:C)
Description: (§3) Peptide binding to poly(I:C) was analyzed by monitoring fluorescence polarization using the Synergy H1 microplate reader (BioTek). Fluorescein-labeled LL-37 was titrated to a 100 μL solution containing poly(I:C) and phosphate buffers at different pHs. Interactions between LL-37 and other peptides were analyzed using LL-37 labeled at the N-terminus with fluorescein (0.1 μM), and peptides were titrated from 1 nM to 1000 nM in phosphate buffer at pH 7.0. Interaction between poly(I:C) and different peptides was determined by titrating fluorescein-labeled poly(I:C) (0.1 μM) with peptides added to final concentrations of 10 to 500 nM in phosphate buffer at pH 7.4. All polarization assays were performed in triplicate.
LL-37 accompanies dsRNA to endosomes containing TLR3. However, it is unknown whether LL-37 will release the dsRNA in endosomes. Johansson et al. (1998) have previously determined that a neutral pH is required for the activity of LL-37. We seek to determine whether LL-37 binding to dsRNA can be affected by pH.

TLR4 signaling = assay: IL-6 production (ELISA) in BEAS-2B cells induced with LPS; type: cell-based, human; conditions: for IL-6 production (%) LPS-depend.: BEAS-2B cells induced with 1.0 μg/ml of LPS, LL-37 100
Description: as §1, §2

FPRL-1 receptor = molecular target: T1, FPRL-1 receptor (Homo sapiens, UniProt P25090); assay: IL-6 production in BEAS-2B cells knocked down with siRNA (FPRL-1, EGFR, control); type: cell-based; conditions: for IL-6 production, peptide added along with LL-37 and poly(I:C), in words: siRNA to FPRL-1 or nonspecific control; for IL-6 production, peptide with poly(I:C), in words: knockdown of either FPRL-1 or EGFR
T1 construct: a human lung epithelial cell line that expresses endogenous FPRL-1; endogenous in cells; host or cells: BEAS-2B
T1 sequence (P25090 1-351): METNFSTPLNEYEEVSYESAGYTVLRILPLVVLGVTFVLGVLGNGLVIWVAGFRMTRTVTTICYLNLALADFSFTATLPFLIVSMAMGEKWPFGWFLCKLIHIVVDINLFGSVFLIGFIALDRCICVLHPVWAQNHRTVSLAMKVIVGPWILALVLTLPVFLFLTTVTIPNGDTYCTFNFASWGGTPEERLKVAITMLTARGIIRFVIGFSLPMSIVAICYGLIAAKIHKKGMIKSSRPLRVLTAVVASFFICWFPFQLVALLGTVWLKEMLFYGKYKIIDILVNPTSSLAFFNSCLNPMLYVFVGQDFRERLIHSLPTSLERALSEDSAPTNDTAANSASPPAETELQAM
Description: BEAS-2B cells were seeded at 2×10^6 cells per 6-well plate for 6 h prior to transfection with 30 nM of a pool of three siRNAs from Santa Cruz Biotechnology. Transfections were done using Lipofectamine 2000.
Cells were grown on poly-L-lysine (Life Technologies). The level of target mRNA was analyzed using qRT-PCR and normalized to the levels of GAPDH mRNA. The sequences of the primers will be made available upon request. Poly(I:C) was added 48 h after siRNA transfection and IL-6 levels in the culture media were collected 24 h later.
LL-37's enhancement of TLR3 signaling required trafficking of LL-37/poly(:C) to endosomes via the FPRL-1 receptor. Therefore, we examined whether LL-29 used the FPRL-1 receptor to enter cells. siRNA was used to knock down the expression of either FPRL-1, EGFR, or TLR3. […] Co-localization of fLL-37 and rpIC was reduced to less than a third of the control. […] Knockdowns performed with siRNAs to either a nonspecific control or EGFR had no effect on the enhancement of IL-6 production.
Will LL-29 affect the use of the FPRL-1 receptor by the LL-37/poly(I:C) complex? BEAS-2B cells knocked down for FPRL-1 were treated with LL-37 along with additional concentrations of LL-37, Pentamide, LL-29, Peptide A, or LL8-37 (FIG. 6C). Signaling by TLR3 was determined by the amount of IL-6 secreted in the cell culture media. A control siRNA had no effect on WT LL-37/poly(I:C) enhancement of IL-6 production.
LL-37 uses the Formyl peptide receptor-like 1 (FPRL-1) receptor to deliver nucleic acids into endosomes, where activation of the Toll-like receptors that recognize nucleic acids takes place (Singh et al., 2014). We sought to determine whether the LL-37 orthologs from other mammals could also use the FPRL-1 in the human BEAS-2B cells to deliver dsRNA. BEAS-2B cells were treated with poly(I:C) along with the peptides and the peptides from pig, sheep, rabbit, and mouse had reduced ability to use the FPRL-1 to activate IL-6 production.

[2] = tested on: LL-37 enhancement of TLR3 signaling; assay: Antagonism of LL-37/poly(I:C)-enhanced IL-6 production in BEAS-2B cells; type: cell-based, human; conditions: peptide added with LL-37/poly(I:C), BEAS-2B cells
Description: as §1
We examined whether LL-29 could affect the enhancement of TLR3 signaling by WT LL-37/poly(I:C). An increasing amount of LL-29 along with a constant amount of LL-37/poly(I:C) was used to assess IL-6 production in BEAS-2B cells. […] That is, LL-29 abrogated LL-37's ability to enhance TLR3 signaling. That is, LL-29 is an example of a peptide antagonist of LL-37 function.

f-LL37 = molecular target: T2, f-LL37 (Homo sapiens, UniProt P49913); assay: Fluorescence polarization, interaction of peptides with fluorescein-labeled LL-37; type: binding
T2 sequence (P49913 134-170 limits assumed): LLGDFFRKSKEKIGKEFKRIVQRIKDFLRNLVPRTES
Description: as §3

Sequence	Hydrodynamic radius (nm) pH 5.8 [1] [nm]	Hydrodynamic radius (nm) pH 7.4 [1] [nm]	Enhancement of TLR3 signaling / poly(I:C)-induced IL-6, in words (TLR3 signaling)	IL-6 production (%) poly(I:C)-depend. (TLR3 signaling) [%]	Enhancement of IL-6 production / signaling by Reo S4, in words (Reovirus dsRNA, Reo S4)	Binding to poly(I:C)/dsRNA in fluorescent polarization assay, in words (poly(I:C))	IL-6 production (%) LPS-depend. (TLR4 signaling) [%]	pH-dependent dissociation of peptide particles, in words [1]	IL-6 production, peptide added along with LL-37 and poly(I:C), in words (FPRL-1 receptor)	Antagonism of LL-37 enhancement of TLR3 signaling (IL-6), in words [2]	Interaction with fLL-37, in words (f-LL37)	IL-6 production, peptide with poly(I:C), in words (FPRL-1 receptor)	Suppression of TLR4 signaling / LPS-induced IL-6, in words (TLR4 signaling; BEAS-2B cells)
GLLRKGGEKIGEKLKKIGQKIKNFFQKLVPQPEQ [mCRAMP, murine ortholog of LL-37, reference compound]	1106	1718	failed to enhance TLR3 signaling; also recorded: unable to enhance IL-6 production	31 ± 3	unable to enhance IL-6 production	failed to bind dsRNA	82 ± 29						
LLGDFFRKSKEKIGKEFKRIVQRIKDFLRKLVPQPEQ (listed as Homo sapiens) [Peptide A]	956	1990		41 ± 6		debilitated for binding RNA	161 ± 11	reduced for the ability to dissociate under acidic pH conditions	resulted in a reduction in IL-6 levels	to a lesser degree than LL-29; also recorded: can partially antagonize the enhancement of TLR3 signaling	retained partial interaction with fLL-37; also recorded: retain partial activity to interact with fLL-37		
LLGNFFRKSKQKIGKQFKRIVQRIKNFLRNLVPRTQS (not fully specified) [Pentamide, five acidic residues in LL-37 replaced with neutral-polar residues, reference compound]	1990	1106	failed to enhance TLR3 signaling	31 ± 0		failed to bind dsRNA	400 ± 32	failed to dissociate	had no effect on IL-6 production unless FPRL-1 expression was reduced			did not enhance IL-6 production	failed to suppress TLR4 signaling
SKEKIGKEFKRIVQRIKDFLRNLVPRTES ((1)..(29) LL8-37; listed as Homo sapiens)	615	825		38 ± 3			239 ± 21		had no effect on IL-6 production unless FPRL-1 expression was reduced		retain partial activity to interact with fLL-37	did not enhance IL-6 production	
